Two molecules from patent publication US20240261333A1 (published 2024) can be followed below.

What all share (experiment): co-IP with anti-FLAG, C-FLAG B3GNT2, mass spectrometry
One experiment concerns the target RPS14 (human, UniProt P62263 2-151). On the procedure: (§1) Cells were plated in 10-cm cell culture dishes and grown to 60-80% confluency. For each condition, two biological replicates were harvested for co-IP. Cells were washed with PBS and 4 mL of lysis buffer (20 mM HEPES, 1% Triton X-100, 150 mM NaCl, 1 mM EDTA, and 10% glycerol) containing protease inhibitor cocktail was added. Cells were scraped and lysate was incubated at 4° C. under rotary agitation for 1 h. Lysate was centrifuged at 14,000×g for 10 min at 4° C. Supernatant was transferred to a new tube and an aliquot was taken as the input. […] For Western blots, 10 μg/mL Chicken Anti-FLAG (Aves labs ET-DY100) and IgY control (R&D Systems AB-101-C) antibodies were biotinylated (Thermo Fisher Scientific 90407) and added to the respective conditions. Lysates with antibodies were incubated at 4° C. under rotary agitation overnight. For each mL of lysate, 50 μL of Pierce Protein A/G Magnetic Beads (Mass spectrometry; Thermo Fisher Scientific 88803) or Pierce Streptavidin Magnetic Beads (Western blot; Thermo Fisher Scientific 88817) was washed twice with lysis buffer. Lysates with antibodies were added to the beads and incubated at 4° C. under rotary agitation for 4 h. Beads were washed with lysis buffer 3 times and resuspended in lysis buffer for storage.
(§2) Magnetic beads were resuspended in 100 mM Tris pH 7.8, reduced, alkylated and digested with trypsin at 37° ° C. overnight. This solution was subjected to solid phase extraction to concentrate the peptides and remove unwanted reagents followed by injection onto a Shimadzu HPLC with fraction collector. Eight fractions were collected and after concentration were injected on a Waters NanoAcquity HPLC equipped with a self-packed Aeris 3 μm C18 analytical column 0.075 mm by 20 cm, (Phenomenex). Peptides were eluted using standard reverse-phase gradients. The effluent from the column was analyzed using a Thermo Orbitrap Elite mass spectrometer (nanospray configuration) operated in a data dependent manner for 54 minutes. The resulting fragmentation spectra were correlated against the known database using Proteome Discover 1.4 (Thermo Fisher Scientific).

Another experiment addresses RPL38 (human, UniProt P63173 1-70). As to the method: as §1, §2
In the next experiment the target is T1, S100A7 (human, UniProt P31151 2-101).
T1 construct: also called NP_002954.2
T1 sequence (looked up): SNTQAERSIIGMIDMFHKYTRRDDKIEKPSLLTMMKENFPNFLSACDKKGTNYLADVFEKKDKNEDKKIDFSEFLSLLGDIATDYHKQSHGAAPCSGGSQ
On the procedure:
as §1, §2

The target in the next experiment is T2, YBX1 (human, UniProt P67809 2-324).
T2 construct: also called NP_004550.2
T2 sequence (P67809 2-324 limits assumed): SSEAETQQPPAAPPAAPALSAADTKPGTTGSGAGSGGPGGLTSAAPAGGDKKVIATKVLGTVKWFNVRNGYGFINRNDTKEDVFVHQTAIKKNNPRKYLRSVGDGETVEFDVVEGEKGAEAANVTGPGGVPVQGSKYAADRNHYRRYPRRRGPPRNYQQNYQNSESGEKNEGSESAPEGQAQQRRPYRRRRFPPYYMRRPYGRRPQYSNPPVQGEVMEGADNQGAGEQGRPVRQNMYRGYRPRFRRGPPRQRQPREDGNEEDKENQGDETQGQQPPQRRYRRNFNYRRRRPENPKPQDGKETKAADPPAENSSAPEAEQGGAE
As to the method: as §1, §2

The target of a further experiment is T3, CPSF7 (human, UniProt Q8N684 1-471).
T3 construct: also called NP_001129512.1 (+5)
T3 sequence (looked up): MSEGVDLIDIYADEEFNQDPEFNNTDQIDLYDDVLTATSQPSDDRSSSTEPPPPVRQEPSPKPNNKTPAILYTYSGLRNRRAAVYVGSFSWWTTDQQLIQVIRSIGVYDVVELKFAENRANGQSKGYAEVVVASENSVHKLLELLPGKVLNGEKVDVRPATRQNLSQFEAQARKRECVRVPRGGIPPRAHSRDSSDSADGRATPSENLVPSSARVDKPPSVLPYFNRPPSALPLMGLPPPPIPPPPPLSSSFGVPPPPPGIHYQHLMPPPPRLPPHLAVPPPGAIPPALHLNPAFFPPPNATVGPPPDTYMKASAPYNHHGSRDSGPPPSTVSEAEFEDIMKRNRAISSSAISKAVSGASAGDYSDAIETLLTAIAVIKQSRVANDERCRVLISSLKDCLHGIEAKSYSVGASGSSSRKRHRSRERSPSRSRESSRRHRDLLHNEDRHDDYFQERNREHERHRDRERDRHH
As to the method: as §1, §2

The target of a further experiment is T4, PUF60 (human, UniProt Q9UHX1 1-559, limits assumed).
T4 construct: also called NP_016868724.1
T4 sequence (looked up): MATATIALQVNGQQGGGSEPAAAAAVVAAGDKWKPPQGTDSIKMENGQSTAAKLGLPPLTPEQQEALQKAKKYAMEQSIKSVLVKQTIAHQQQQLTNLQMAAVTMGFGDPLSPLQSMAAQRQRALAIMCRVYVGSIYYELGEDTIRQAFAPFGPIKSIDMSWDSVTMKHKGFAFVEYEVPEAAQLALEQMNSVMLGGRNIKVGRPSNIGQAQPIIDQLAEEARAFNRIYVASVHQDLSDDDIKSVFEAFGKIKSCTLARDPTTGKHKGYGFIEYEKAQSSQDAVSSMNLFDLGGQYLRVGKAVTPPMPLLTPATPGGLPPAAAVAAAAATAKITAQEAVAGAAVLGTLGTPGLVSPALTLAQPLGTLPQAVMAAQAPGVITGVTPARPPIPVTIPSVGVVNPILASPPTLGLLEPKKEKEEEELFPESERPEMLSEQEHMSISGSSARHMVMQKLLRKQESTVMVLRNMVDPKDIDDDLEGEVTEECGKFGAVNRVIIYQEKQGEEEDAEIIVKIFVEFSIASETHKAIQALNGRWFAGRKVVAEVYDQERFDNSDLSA
As to the method: as §1, §2

For another experiment, the target named is RPS20 (human, UniProt P60866 2-119). On the procedure: as §1, §2

B1: C-terminal FLAG tagged B3GNT2 (enzyme, human, UniProt Q9NY97 1-397, looked up)
chain: MSVGRRRIKLLGILMMANVFIYFIMEVSKSSSQEKNGKGEVIIPKEKFWKISTPPEAYWNREQEKLNRQYNPILSMLTNQTGEAGRLSNISHLNYCEPDLRVTSVVTGFNNLPDRFKDFLLYLRCRNYSLLIDQPDKCAKKPFLLLAIKSLTPHFARRQAIRESWGQESNAGNQTVVRVFLLGQTPPEDNHPDLSDMLKFESEKHQDILMWNYRDTFFNLSLKEVLFLRWVSTSCPDTEFVFKGDDDVFVNTHHILNYLNSLSKTKAKDLFIGDVIHNAGPHRDKKLKYYIPEVVYSGLYPPYAGGGGFLYSGHLALRLYHITDQVHLYPIDDVYTGMCLQKLGLVPEKHKGFRTFDIEEKNKNNICSYVDLMLVHSRKPQEMIDIWSQLQSAHLKC
notes: FLAG-tagged ORF overexpressed in cells; pulled down from lysate with mouse anti-FLAG; also called C-FLAG B3GNT2; C-term flag; not shown: C-terminal FLAG tag
Take B1: the “co-IP mass spectrometry count” value came out at 18 with RPS14, 8 with RPL38, 5 with S100A7 and 9 with YBX1.

B2: C-terminal FLAG tagged B3GNT2 (enzyme, human, UniProt Q9NY97 1-397, looked up)
chain: MSVGRRRIKLLGILMMANVFIYFIMEVSKSSSQEKNGKGEVIIPKEKFWKISTPPEAYWNREQEKLNRQYNPILSMLTNQTGEAGRLSNISHLNYCEPDLRVTSVVTGFNNLPDRFKDFLLYLRCRNYSLLIDQPDKCAKKPFLLLAIKSLTPHFARRQAIRESWGQESNAGNQTVVRVFLLGQTPPEDNHPDLSDMLKFESEKHQDILMWNYRDTFFNLSLKEVLFLRWVSTSCPDTEFVFKGDDDVFVNTHHILNYLNSLSKTKAKDLFIGDVIHNAGPHRDKKLKYYIPEVVYSGLYPPYAGGGGFLYSGHLALRLYHITDQVHLYPIDDVYTGMCLQKLGLVPEKHKGFRTFDIEEKNKNNICSYVDLMLVHSRKPQEMIDIWSQLQSAHLKC
notes: FLAG-tagged ORF overexpressed in A375 cells; pulled down from the lysate with mouse anti-FLAG; also called C-FLAG B3GNT2; C-term flag; not shown: C-terminal FLAG tag
Turning to B2, the “co-IP/MS count, C-term flag” value with CPSF7 stood at 9; with PUF60 it was 6; with RPS20 it was 7.
